± gives the standard error.
Assay: background-corrected fluorescence of 3'-dye-labeled ssDNA relative to brightest sequence (3'-GCGCG) (fraction); higher = brighter dye fluorescence (less quenching)
Procedure: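 Single-stranded DNA is synthesized in situ on glass microarrays by 5'->3' photolithographic synthesis, with a Cy3 or Cy5 phosphoramidite coupled at the 3' end next to all 1024 permuted pentamers P1-P5. The construct is 5'-T5-(ACGT minus P5..P1 trinucleotides)-T15-P5P4P3P2P1-dye-3'; the dye is a 3' terminal modification, not part of the sequence. Arrays were scanned at 532 nm (Cy3) or 635 nm (Cy5), background from unlabeled oligos was subtracted, and values are averaged over 10 replicate features per array and at least 3 independent syntheses.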

Sequence	background-corrected fluorescence (dye: Cy3 (3' terminal))	background-corrected fluorescence (dye: Cy5 (3' terminal))
TTTTTTCATGCTGCTCATGATTTTTTTTTTTTTTTGAAGC [CGAAG]	0.547 ± 0.024	0.397 ± 0.027
TTTTTGCATCATGCTGATGATTTTTTTTTTTTTTTTGACC [CCAGT]	0.418 ± 0.027	0.3 ± 0.02
TTTTTTCATCATCAGCATGATTTTTTTTTTTTTTTGGGTC [CTGGG]	0.511 ± 0.03	0.377 ± 0.024
TTTTTTGATGATCAGCATGATTTTTTTTTTTTTTTCCGTC [CTGCC]	0.442 ± 0.019	0.345 ± 0.018
TTTTTTGAGCATCATGATGATTTTTTTTTTTTTTTCTGCC [CCGTC]	0.402 ± 0.027	0.312 ± 0.018
TTTTTTGATGCTGCGCATGCTTTTTTTTTTTTTTTCAATA [ATAAC]	0.574 ± 0.023	0.422 ± 0.042
TTTTTTCATCATGCTGAGCATTTTTTTTTTTTTTTGGACT [TCAGG]	0.508 ± 0.033	0.412 ± 0.04
TTTTTGCATGATCATGCTCATTTTTTTTTTTTTTTTCGAG [GAGCT]	0.616 ± 0.029	0.478 ± 0.035
TTTTTTGATGCTCAGCATGATTTTTTTTTTTTTTTCAGTC [CTGAC]	0.477 ± 0.0054	0.373 ± 0.086
TTTTTTGCGCAGCAGCATCATTTTTTTTTTTTTTTATTTG [GTTTA]	0.5 ± 0.026	0.355 ± 0.025
TTTTTGCATGAGCATGATGATTTTTTTTTTTTTTTTCTCC [CCTCT]	0.335 ± 0.042	0.268 ± 0.019
TTTTTTGCGCATGAGCATGATTTTTTTTTTTTTTTATCTC [CTCTA]	0.41 ± 0.024	0.291 ± 0.02
TTTTTTGCTGCGCATGCTGATTTTTTTTTTTTTTTAATAC [CATAA]	0.453 ± 0.011	0.317 ± 0.019
TTTTTTCATGCTGATGCTCATTTTTTTTTTTTTTTGACAG	0.547 ± 0.023	0.423 ± 0.036
TTTTTGCAGCATGATGATGCTTTTTTTTTTTTTTTTTCCA [ACCTT]	0.453 ± 0.026	0.35 ± 0.028
TTTTTTGATCATGCTGCTGATTTTTTTTTTTTTTTCGAAC [CAAGC]	0.48 ± 0.039	0.366 ± 0.022
TTTTTTGCTCAGCATGCTGCTTTTTTTTTTTTTTTAGTAA [AATGA]	0.563 ± 0.016	0.493 ± 0.037
TTTTTTGATGAGCATCATGCTTTTTTTTTTTTTTTCCTGA [AGTCC]	0.592 ± 0.034	0.499 ± 0.086
TTTTTTCATGCGCAGCATGATTTTTTTTTTTTTTTGATTC [CTTAG]	0.451 ± 0.026	0.317 ± 0.02
TTTTTTGATCAGCATCATCATTTTTTTTTTTTTTTCGTGG [GGTGC]	0.622 ± 0.021	0.483 ± 0.033
TTTTTTGATGCTGATGAGCATTTTTTTTTTTTTTTCACCT [TCCAC]	0.457 ± 0.021	0.326 ± 0.03
TTTTTTCATGCTGCTGCTCATTTTTTTTTTTTTTTGAAAG	0.574 ± 0.028	0.431 ± 0.056

Sequence	background-corrected fluorescence (dye: Cy3 (3' terminal))	background-corrected fluorescence (dye: Cy5 (3' terminal))
TTTTTTGCGCAGCATGCTGCTTTTTTTTTTTTTTTATTAA [AATTA]	0.585 ± 0.024	0.416 ± 0.035
TTTTTTGCTGAGCATCATGCTTTTTTTTTTTTTTTACTGA [AGTCA]	0.654 ± 0.04	0.475 ± 0.024
TTTTTTGCTGCGCAGCATCATTTTTTTTTTTTTTTAATTG [GTTAA]	0.561 ± 0.03	0.381 ± 0.025
TTTTTTGCGCAGCATGATCATTTTTTTTTTTTTTTATTCG [GCTTA]	0.519 ± 0.034	0.388 ± 0.021
TTTTTTGCTCATGATCATGCTTTTTTTTTTTTTTTAGCGA	0.708 ± 0.033	0.58 ± 0.052
TTTTTTGATCATCATGCTGCTTTTTTTTTTTTTTTCGGAA [AAGGC]	0.656 ± 0.032	0.548 ± 0.058
TTTTTTCATCATGATGCTCATTTTTTTTTTTTTTTGGCAG [GACGG]	0.527 ± 0.028	0.426 ± 0.017
TTTTTTGATGCTGCGCATGATTTTTTTTTTTTTTTCAATC [CTAAC]	0.421 ± 0.026	0.284 ± 0.013
TTTTTTGATCATGCTCATCATTTTTTTTTTTTTTTCGAGG [GGAGC]	0.723 ± 0.029	0.534 ± 0.035
TTTTTTGCTGCGCATGATGATTTTTTTTTTTTTTTAATCC [CCTAA]	0.376 ± 0.013	0.29 ± 0.018
TTTTTTGAGCATCAGCAGCATTTTTTTTTTTTTTTCTGTT [TTGTC]	0.541 ± 0.023	0.411 ± 0.033
TTTTTTGAGCATGATCAGCATTTTTTTTTTTTTTTCTCGT [TGCTC]	0.567 ± 0.015	0.416 ± 0.024
TTTTTGCATGATGAGCATCATTTTTTTTTTTTTTTTCCTG [GTCCT]	0.475 ± 0.028	0.366 ± 0.034
TTTTTGCATGCTGCTGCTGATTTTTTTTTTTTTTTTAAAC [CAAAT]	0.447 ± 0.028	0.336 ± 0.028
TTTTTTCATGAGCATGATGCTTTTTTTTTTTTTTTGCTCA [ACTCG]	0.485 ± 0.016	0.386 ± 0.032
TTTTTGCAGCAGCATGCTGATTTTTTTTTTTTTTTTTTAC [CATTT]	0.391 ± 0.039	0.292 ± 0.021
TTTTTTGAGCATGATGATCATTTTTTTTTTTTTTTCTCCG [GCCTC]	0.531 ± 0.02	0.426 ± 0.028
TTTTTTCATCAGCATGATCATTTTTTTTTTTTTTTGGTCG [GCTGG]	0.526 ± 0.035	0.405 ± 0.028
TTTTTGCAGCATCATCAGCATTTTTTTTTTTTTTTTTGGT [TGGTT]	0.689 ± 0.017	0.593 ± 0.047
TTTTTTCATGCTGCTCATGCTTTTTTTTTTTTTTTGAAGA [AGAAG]	0.6356 ± 0.0052	0.582 ± 0.029
TTTTTTCAGCATGCTCATCATTTTTTTTTTTTTTTGTAGG [GGATG]	0.618 ± 0.027	0.51 ± 0.1
TTTTTTCATCATGCTGCTGCTTTTTTTTTTTTTTTGGAAA [AAAGG]	0.642 ± 0.038	0.534 ± 0.035

Sequence	background-corrected fluorescence (dye: Cy3 (3' terminal))	background-corrected fluorescence (dye: Cy5 (3' terminal))
TTTTTTCATGCTCATGCTGATTTTTTTTTTTTTTTGAGAC [CAGAG]	0.476 ± 0.015	0.357 ± 0.018
TTTTTTGATGCTCATGCTCATTTTTTTTTTTTTTTCAGAG [GAGAC]	0.595 ± 0.022	0.462 ± 0.03
TTTTTTGCGCATGAGCAGCATTTTTTTTTTTTTTTATCTT [TTCTA]	0.458 ± 0.0056	0.35 ± 0.024
TTTTTTGATGCTGATGCTGATTTTTTTTTTTTTTTCACAC	0.392 ± 0.006	0.311 ± 0.024
TTTTTGCATCATGAGCATCATTTTTTTTTTTTTTTTGCTG [GTCGT]	0.463 ± 0.018	0.358 ± 0.022
TTTTTTGCTCATGATGCTGCTTTTTTTTTTTTTTTAGCAA [AACGA]	0.579 ± 0.03	0.427 ± 0.03
TTTTTTCATGATGATGCTGATTTTTTTTTTTTTTTGCCAC [CACCG]	0.393 ± 0.022	0.299 ± 0.015
TTTTTTGAGCATCATCATCATTTTTTTTTTTTTTTCTGGG [GGGTC]	0.668 ± 0.018	0.563 ± 0.043
TTTTTTGCTGAGCATGATCATTTTTTTTTTTTTTTACTCG [GCTCA]	0.571 ± 0.028	0.418 ± 0.03
TTTTTTGCTGCTGAGCATGCTTTTTTTTTTTTTTTAACTA [ATCAA]	0.5388 ± 0.0047	0.406 ± 0.019
TTTTTGCATGAGCATCATGATTTTTTTTTTTTTTTTCTGC [CGTCT]	0.491 ± 0.029	0.368 ± 0.024
TTTTTTCATGCGCATGCTCATTTTTTTTTTTTTTTGATAG	0.526 ± 0.03	0.425 ± 0.049
TTTTTTGATGAGCAGCATCATTTTTTTTTTTTTTTCCTTG [GTTCC]	0.547 ± 0.021	0.378 ± 0.025
TTTTTTGAGCATGATGCTCATTTTTTTTTTTTTTTCTCAG [GACTC]	0.517 ± 0.024	0.389 ± 0.03
TTTTTTGATGATCATGCGCATTTTTTTTTTTTTTTCCGAT [TAGCC]	0.603 ± 0.04	0.435 ± 0.022
TTTTTTGATGCGCATCATGCTTTTTTTTTTTTTTTCATGA [AGTAC]	0.672 ± 0.026	0.579 ± 0.038
TTTTTTCATGCTGATGCTGATTTTTTTTTTTTTTTGACAC [CACAG]	0.42 ± 0.0058	0.321 ± 0.044
TTTTTTGCTGATGCTCATCATTTTTTTTTTTTTTTACAGG [GGACA]	0.646 ± 0.034	0.511 ± 0.053
TTTTTTCATGCTGCTGATGATTTTTTTTTTTTTTTGAACC [CCAAG]	0.41 ± 0.033	0.288 ± 0.027
TTTTTTGCTGCTCATCAGCATTTTTTTTTTTTTTTAAGGT [TGGAA]	0.658 ± 0.016	0.585 ± 0.052
TTTTTTCATCATCATGCTGCTTTTTTTTTTTTTTTGGGAA [AAGGG]	0.649 ± 0.032	0.596 ± 0.068
TTTTTGCATCAGCAGCATGCTTTTTTTTTTTTTTTTGTTA [ATTGT]	0.51 ± 0.02	0.415 ± 0.023

Source: the supplement of paper PMC9428881
